Experimental data published in paper PMC3103430, “RecA Proteins from Deinococcus geothermalis and Deinococcus murrayi - Cloning, Purification and Biochemical Characterisation”.

Columns and labels:
DmuRecA = DmuRecA (Deinococcus murrayi DSM 11303, UniProt E7CG23 1-359); experiment: EMSA; 8-10 mM Mg2+ (most efficient), ATPgS + ATP, 37 C; 20 mM potassium phosphate pH 7.5, 0-10 mM MgCl2, 110 uM ATPgS + 300 uM ATP (ssDNA, 9 uM RecA) or 180 uM ATPgS + 500 uM ATP (dsDNA, 12 uM RecA), 30 min at 37 C (25-75 C series for ssDNA), 0.8% agarose gel; conditions: protein: recombinant; tags: none (native start and stop codons, NdeI/XhoI in pET-30Ek/LIC); label: 5'-fluorescein
DgeRecA = DgeRecA (Deinococcus geothermalis DSM 11302, UniProt Q1IWF2 1-358); experiment: as above; conditions: protein: recombinant; tags: none (native start and stop codons, NdeI/HindIII in pET-30Ek/LIC); label: 5'-fluorescein
Chain of DgeRecA (Q1IWF2 whole entry): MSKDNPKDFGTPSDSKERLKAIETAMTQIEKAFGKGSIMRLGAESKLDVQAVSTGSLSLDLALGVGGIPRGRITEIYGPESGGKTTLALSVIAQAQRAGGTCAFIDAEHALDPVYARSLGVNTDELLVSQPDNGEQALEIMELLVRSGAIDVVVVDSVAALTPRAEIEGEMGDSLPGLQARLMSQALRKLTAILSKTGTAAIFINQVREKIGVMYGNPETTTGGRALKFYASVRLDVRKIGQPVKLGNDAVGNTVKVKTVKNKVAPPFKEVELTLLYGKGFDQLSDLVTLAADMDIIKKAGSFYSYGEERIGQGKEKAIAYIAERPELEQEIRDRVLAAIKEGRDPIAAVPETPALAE

TTTTTTTTTTTTTTTTTTTTTTTTTTTTTTTTTTT (ssDNA) [oligo(dT)35]
binding result (DmuRecA): binds | binding result (DgeRecA): binds
